Laboratory results: patent US20210261648A1 (published 2021)
Numbering of substitutions follows the chain as printed. Names and notes keep the numbering of the source.

What was measured:
[1] = molecular target: T1, FcγRIIb extracellular domain with C-terminal His tag (human, UniProt P31994 43-217); assay: SPR (Biacore)
T1 construct: extracellular domain; For crystals it was expressed with kifunensine and trimmed with Endo F1; also called FcgRIIb; FcγRIIb extracellular region
T1 sequence (looked up): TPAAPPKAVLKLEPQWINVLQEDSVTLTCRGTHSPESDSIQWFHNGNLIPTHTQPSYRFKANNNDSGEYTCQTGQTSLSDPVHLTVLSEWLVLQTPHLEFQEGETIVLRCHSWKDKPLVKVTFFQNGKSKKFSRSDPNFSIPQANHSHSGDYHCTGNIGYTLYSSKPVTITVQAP

[2] = molecular target: T2, FcγRIa extracellular domain with C-terminal His tag (human, UniProt P12314 16-292); assay: SPR, captured antibody, FcgR analyte
T2 construct: also called FcgRIa
Description: (§1) Relative binding activities were calculated for the results of analyzing interactions with the respective FcγRs according to the following method.

[3] = molecular target: T3, FcγRIIb extracellular domain with C-terminal His tag (human, UniProt P31994 43-217); assay: SPR, captured antibody, FcgR analyte
T3 construct: extracellular domain; also called FcgRIIb
T3 sequence (looked up): T1 sequence (looked up)
Description: as §1

[4] = molecular target: T4, FcγRIIa type H extracellular domain with C-terminal His tag (human, UniProt P12318 34-217); assay: SPR, captured antibody, FcgR analyte
T4 construct: extracellular domain; also called FcgRIIaH; FcγRIIa H
T4 sequence (looked up): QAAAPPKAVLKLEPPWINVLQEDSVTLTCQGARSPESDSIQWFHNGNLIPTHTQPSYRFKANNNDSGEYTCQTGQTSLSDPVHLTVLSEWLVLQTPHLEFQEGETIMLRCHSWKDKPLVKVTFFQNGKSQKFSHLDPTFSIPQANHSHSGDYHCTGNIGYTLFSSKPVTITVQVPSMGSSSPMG
Description: as §1

T2 sequence (P12314 16-292): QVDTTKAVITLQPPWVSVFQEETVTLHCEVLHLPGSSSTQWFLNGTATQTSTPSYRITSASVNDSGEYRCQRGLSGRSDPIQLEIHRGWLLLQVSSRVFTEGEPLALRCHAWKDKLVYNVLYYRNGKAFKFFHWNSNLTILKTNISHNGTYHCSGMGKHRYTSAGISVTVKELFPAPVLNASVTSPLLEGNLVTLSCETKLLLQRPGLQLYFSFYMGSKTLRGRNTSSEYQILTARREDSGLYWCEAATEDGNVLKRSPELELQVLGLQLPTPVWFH

B1: IL6R-BP541/IL6R-L (antibody, human IgG1, kappa)
heavy: QVQLQESGPGLVKPSETLSLTCAVSGHSISHDHAWSWVRQPPGEGLEWIGFISYSGITNYNPSLQGRVTISRDNSKNTLYLQMNSLRAEDTAVYYCARSLARTTAMDYWGEGTLVTVSSASTKGPSVFPLAPSSKSTSGGTAALGCLVKDYFPEPVTVSWNSGALTSGVHTFPAVLQSSGLYSLSSVVTVPSSSLGTQTYICNVNHKPSNTKVDKKVEPKSCDKTHTCPPCPAPDLLGDDSVFLFPPKPKDTLMISRTPEVTCVVVDVSDEDGEVQFNWYVDGVEVHNAKTKPREEQDNSTYRVVSVLTVLHQDWLNGKEYKCKVSNKALPRPIEKTISKAKGQPREPQVYTLPPSRDELTKNQVSLTCLVKGFYPSDIAVEWESNGQPENNYKTTPPVLDSDGSFFLYSKLTVDKSRWQQGNVFSCSVMHEALHNHYTQESLSLSP
light: not shown
[1]
  binding result: binds

B2: IL6R-BP454/IL6R-L (antibody, human IgG1, kappa, name in EU numbering)
heavy: B1 heavy with S269A, D270E, Q276K, D298Y, P398K
light: not shown
[1]
  binding result: binds

B3: IL6R-BP450/IL6R-L (antibody, human IgG1, kappa, name in EU numbering)
heavy: B1 heavy with S269A, D270E, Q276K, D298Y, P398F
light: not shown
[1]
  binding result: binds

B4: IL6R-BP456/IL6R-L (antibody, human IgG1, kappa, name in EU numbering)
heavy: B1 heavy with S269A, D270E, Q276K, D298Y, P398M
light: not shown
[1]
  binding result: binds

B5: IL6R-BP186/IL6R-L (antibody, human IgG1, kappa)
heavy: B1 heavy with L236Y, D270H, Q276K, K328A, R332K
light: not shown
[2]
  relative binding activity: 43 relative (IL6R-BF648/IL6R-L = 100)
[3]
  relative binding activity: 175 relative (IL6R-BF648/IL6R-L = 100)
[4]
  relative binding activity: 368 relative (IL6R-BF648/IL6R-L = 100)

B6: IL6R-BP492/IL6R-L (antibody, human IgG1, kappa)
heavy: B1 heavy with D235E, D239G, V266I, S269A, D270E, Q276K, D298Y, R332A
light: not shown
[1]
  binding relative to IL6R-B3/IL6R-L: ≥ 100 times

B7: IL6R-BP202/IL6R-L (antibody, human IgG1, kappa)
heavy: B1 heavy with D235E, D270H, Q276K, D298Y, K328A
light: not shown
[2]
  relative binding activity: 43 relative (IL6R-BF648/IL6R-L = 100)
[3]
  relative binding activity: 185 relative (IL6R-BF648/IL6R-L = 100)
[4]
  relative binding activity: 285 relative (IL6R-BF648/IL6R-L = 100)

B8: IL6R-BP459/IL6R-L (antibody, human IgG1, kappa, name in EU numbering)
heavy: B1 heavy with S269A, D270E, Q276K, D298Y, P398R
light: not shown
[1]
  binding result: binds

B9: IL6R-BP466/IL6R-L (antibody, human IgG1, kappa)
heavy: B1 heavy with Q276K, E335R
light: not shown
[1]
  binding result: binds

B10: IL6R-BP179/IL6R-L (antibody, human IgG1, kappa)
heavy: B1 heavy with D235E, D270H, Q276K, D298Y, K328A, R332K
light: not shown
[2]
  relative binding activity: 39 relative (IL6R-BF648/IL6R-L = 100)
[3]
  relative binding activity: 177 relative (IL6R-BF648/IL6R-L = 100)
[4]
  relative binding activity: 226 relative (IL6R-BF648/IL6R-L = 100)

B11: IL6R-BP470/IL6R-L (antibody, human IgG1, kappa)
heavy: B1 heavy with Q276K, E335T
light: not shown
[1]
  binding result: binds

B12: IL6R-BP391/IL6R-L (antibody, human IgG1, kappa)
heavy: B1 heavy with Q276K, I334T
light: not shown
[1]
  binding result: binds

B13: IL6R-BP464/IL6R-L (antibody, human IgG1, kappa, name in EU numbering)
heavy: B1 heavy with S269A, D270E, Q276K, D298Y, P398Y
light: not shown
[1]
  binding result: binds

B14: IL6R-BP194/IL6R-L (antibody, human IgG1, kappa)
heavy: B1 heavy with L236Y, Q276K, D298Y, K328A, R332K
light: not shown
[2]
  relative binding activity: 69 relative (IL6R-BF648/IL6R-L = 100)
[3]
  relative binding activity: 178 relative (IL6R-BF648/IL6R-L = 100)
[4]
  relative binding activity: 395 relative (IL6R-BF648/IL6R-L = 100)

B15: IL6R-BP453/IL6R-L (antibody)
heavy: B1 heavy with S269A, D270E, Q276K, D298Y, P398I
light: not shown
notes: Printed 'P3961'
[1]
  binding result: binds

B16: IL6R-BP493/IL6R-L (antibody, human IgG1, kappa)
heavy: B1 heavy with D235E, D239G, V266I, S269A, D270E, Q276K, R332A
light: not shown
[1]
  binding relative to IL6R-B3/IL6R-L: ≥ 100 times

B17: variant resulting from adding E269D to IL6R-BP267/IL6R-L (antibody, human IgG1, kappa)
heavy: B1 heavy with D270E, E271D, Q276K, D298Y, R332A
light: not shown
[1]
  binding result: binds

B18: IL6R-BP465/IL6R-L (antibody, human IgG1, kappa)
heavy: B1 heavy with Q276K, E335K
light: not shown
[1]
  binding result: binds

B19: IL6R-BP559/IL6R-L (antibody, human IgG1, kappa)
heavy: B1 heavy with D235E, D239G, V266I, S269A, D270E, E274D, Q276K, R332A
light: not shown
[1]
  binding relative to IL6R-B3/IL6R-L: ≥ 100 times

B20: IL6R-BP180/IL6R-L (antibody, human IgG1, kappa)
heavy: B1 heavy with D235E, D270H, Q276K, D298Y, R332K
light: not shown
[2]
  relative binding activity: 29 relative (IL6R-BF648/IL6R-L = 100)
[3]
  relative binding activity: 179 relative (IL6R-BF648/IL6R-L = 100)
[4]
  relative binding activity: 203 relative (IL6R-BF648/IL6R-L = 100)

B21: IL6R-BP544/IL6R-L (antibody, human IgG1, kappa)
heavy: B1 heavy with Q276K, R357Q
light: not shown
[1]
  binding result: binds

B22: IL6R-BP212/IL6R-L (antibody, human IgG1, kappa)
heavy: B1 heavy with D239G, Q276K
light: not shown
[2]
  relative binding activity: 117 relative (IL6R-BF648/IL6R-L = 100)
[3]
  relative binding activity: 173 relative (IL6R-BF648/IL6R-L = 100)
[4]
  relative binding activity: 135 relative (IL6R-BF648/IL6R-L = 100)
